The assay deals with recombinant LukG monomer (TCH1516) (Staphylococcus aureus strain TCH1516 (USA300 CA-MRSA)). The assay can be described thus: BLI. For orientation: Biolayer interferometry detects binding as a change in optical thickness at a sensor tip.
recombinant LukG monomer (TCH1516) (Staphylococcus aureus strain TCH1516 (USA300 CA-MRSA)), sequence (P21224 30-338 limits assumed): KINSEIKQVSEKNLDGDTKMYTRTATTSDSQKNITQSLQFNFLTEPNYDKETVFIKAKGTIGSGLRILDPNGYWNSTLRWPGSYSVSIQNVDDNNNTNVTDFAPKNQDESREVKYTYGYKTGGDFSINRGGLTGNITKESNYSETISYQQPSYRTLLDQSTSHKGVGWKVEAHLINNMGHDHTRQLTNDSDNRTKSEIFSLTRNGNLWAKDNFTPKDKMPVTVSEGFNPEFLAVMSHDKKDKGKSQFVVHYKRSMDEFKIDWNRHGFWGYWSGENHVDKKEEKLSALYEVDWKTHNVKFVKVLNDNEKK

For the substance “recombinant LukH monomer (TCH1516) (natural protein)”, the stoichiometry N (molar ratio of the 2 monomers) was 1.

Values taken from article PMC5058624.
